Paper PMC10082071

How the values were obtained:
[1] = target: Lysyl oxidase-like 2 (LOXL2), full-length, endogenous in human aortic smooth muscle cells (human (endogenous in HASMC)) (UniProt Q9Y4K0); experiment: proximity ligation; Duolink In Situ Red mouse/rabbit kit on HASMC on coverslips, fixed but not permeabilised; cells untreated, with FXa, or with FXa + rivaroxaban for 24 h; signal as mean gray value, % of average of controls
[2] = target: FXa-processed LOXL2, endogenous in human aortic smooth muscle cells treated with FXa (human (endogenous in HASMC)) (UniProt Q9Y4K0); experiment: as above

increase of PLA signal with rivaroxaban (full-length LOXL2 accumulated) [1]: 80 % (increase)
decrease of PLA signal with FXa against controls [2]: 50 % (decrease)
Substance: Type IV collagen, endogenous in the matrix of human aortic smooth muscle cells (complex)
